Source: the supplement of paper PMC10567573

B1: ATL3 (parent)
chain: FSFRYQQELEEEIKELYENFCKHN

Variants of: B1
Experiment: protein stability index of a GFP-peptide fusion (GPS, HEK-293T) (PSI 1-6); higher = more stable
Settings: c terminus: a fixed tail appended
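Note: lentivirally expressed fusions sorted by FACS into six bins by GFP to DsRed ratio, PSI derived from sequencing read proportions per bin multiplied by bin number.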

Q: With FSFRYQAELEEEIKELYENFCKHN [Q7A] as the variant, how does the protein stability index read?
A: Its protein stability index is 2.04.

Q: With FSFKYQQELEEEIKELYENFCKHN [R4K] as the variant, how does the protein stability index read?
A: The protein stability index was 2.33.

Q: Which protein stability index does the source give for FSFPYQQELEEEIKELYENFCKHN [R4P] here?
A: Its protein stability index is 2.87.

Q: For FSFMYQQELEEEIKELYENFCKHN [R4M], which protein stability index is on record?
A: The protein stability index was 1.96.

Q: For FSFFYQQELEEEIKELYENFCKHN [R4F], which protein stability index is on record?
A: The protein stability index was 2.45.

Q: For FSFGYQQELEEEIKELYENFCKHN [R4G], which protein stability index is on record?
A: The protein stability index was 2.88.

Q: Which protein stability index does the source give for FSFAYQQELEEEIKELYENFCKHN [R4A] here?
A: Its protein stability index is 2.05.

Q: With FSFIYQQELEEEIKELYENFCKHN [R4I] as the variant, how does the protein stability index read?
A: The protein stability index was 1.87.

Q: With FSFSYQQELEEEIKELYENFCKHN [R4S] as the variant, how does the protein stability index read?
A: The protein stability index was 2.1.

Q: With FSFHYQQELEEEIKELYENFCKHN [R4H] as the variant, how does the protein stability index read?
A: Its protein stability index is 2.9.

Q: With FSFVYQQELEEEIKELYENFCKHN [R4V] as the variant, how does the protein stability index read?
A: Its protein stability index is 2.36.

Q: For FSFEYQQELEEEIKELYENFCKHN [R4E], which protein stability index is on record?
A: The protein stability index was 2.63.

Q: For FSFWYQQELEEEIKELYENFCKHN [R4W], which protein stability index is on record?
A: Its protein stability index is 1.61.

Q: With FSFQYQQELEEEIKELYENFCKHN [R4Q] as the variant, how does the protein stability index read?
A: Its protein stability index is 2.82.

Q: With FSFCYQQELEEEIKELYENFCKHN [R4C] as the variant, how does the protein stability index read?
A: The protein stability index was 2.23.

Q: Which protein stability index does the source give for FSFLYQQELEEEIKELYENFCKHN [R4L] here?
A: The protein stability index was 2.09.

Q: Which protein stability index does the source give for FSFTYQQELEEEIKELYENFCKHN [R4T] here?
A: The protein stability index was 2.02.

Q: For FSFNYQQELEEEIKELYENFCKHN [R4N], which protein stability index is on record?
A: The protein stability index was 2.96.

Q: Which protein stability index does the source give for FSFDYQQELEEEIKELYENFCKHN [R4D] here?
A: The protein stability index was 3.13.

Q: With FSFYYQQELEEEIKELYENFCKHN [R4Y] as the variant, how does the protein stability index read?
A: The protein stability index was 2.11.

Q: With FSFRLQQELEEEIKELYENFCKHN [Y5L] as the variant, how does the protein stability index read?
A: The protein stability index was 2.13.

Q: For FSFRKQQELEEEIKELYENFCKHN [Y5K], which protein stability index is on record?
A: The protein stability index was 2.93.

Q: For FSFRWQQELEEEIKELYENFCKHN [Y5W], which protein stability index is on record?
A: Its protein stability index is 2.21.

Q: Which protein stability index does the source give for FSFRNQQELEEEIKELYENFCKHN [Y5N] here?
A: The protein stability index was 3.29.

Q: For FSFRHQQELEEEIKELYENFCKHN [Y5H], which protein stability index is on record?
A: Its protein stability index is 2.84.

Q: Which protein stability index does the source give for FSFRTQQELEEEIKELYENFCKHN [Y5T] here?
A: Its protein stability index is 3.09.

Q: Which protein stability index does the source give for FSFRDQQELEEEIKELYENFCKHN [Y5D] here?
A: Its protein stability index is 3.55.

Q: With FSFRCQQELEEEIKELYENFCKHN [Y5C] as the variant, how does the protein stability index read?
A: The protein stability index was 2.44.

Q: With FSFRAQQELEEEIKELYENFCKHN [Y5A] as the variant, how does the protein stability index read?
A: Its protein stability index is 3.51.

Q: With FSFRFQQELEEEIKELYENFCKHN [Y5F] as the variant, how does the protein stability index read?
A: Its protein stability index is 2.5.

Q: With FSFRPQQELEEEIKELYENFCKHN [Y5P] as the variant, how does the protein stability index read?
A: The protein stability index was 3.45.

Q: Which protein stability index does the source give for FSFRVQQELEEEIKELYENFCKHN [Y5V] here?
A: Its protein stability index is 1.93.

Q: With FSFRSQQELEEEIKELYENFCKHN [Y5S] as the variant, how does the protein stability index read?
A: The protein stability index was 3.35.

Q: For FSFRRQQELEEEIKELYENFCKHN [Y5R], which protein stability index is on record?
A: Its protein stability index is 3.56.

Q: Which protein stability index does the source give for FSFRIQQELEEEIKELYENFCKHN [Y5I] here?
A: The protein stability index was 2.77.

Q: Which protein stability index does the source give for FSFRQQQELEEEIKELYENFCKHN [Y5Q] here?
A: The protein stability index was 2.63.

Q: Which protein stability index does the source give for FSFREQQELEEEIKELYENFCKHN [Y5E] here?
A: The protein stability index was 3.07.

Q: With FSFRMQQELEEEIKELYENFCKHN [Y5M] as the variant, how does the protein stability index read?
A: Its protein stability index is 3.4.

Q: With FSSRYQQELEEEIKELYENFCKHN [F3S] as the variant, how does the protein stability index read?
A: The protein stability index was 2.79.

Q: Which protein stability index does the source give for FSGRYQQELEEEIKELYENFCKHN [F3G] here?
A: Its protein stability index is 3.15.

Q: For FSTRYQQELEEEIKELYENFCKHN [F3T], which protein stability index is on record?
A: Its protein stability index is 3.23.

Q: For FSCRYQQELEEEIKELYENFCKHN [F3C], which protein stability index is on record?
A: The protein stability index was 2.59.

Q: With FSHRYQQELEEEIKELYENFCKHN [F3H] as the variant, how does the protein stability index read?
A: The protein stability index was 3.23.

Q: For FSDRYQQELEEEIKELYENFCKHN [F3D], which protein stability index is on record?
A: Its protein stability index is 3.14.

Q: With FSVRYQQELEEEIKELYENFCKHN [F3V] as the variant, how does the protein stability index read?
A: The protein stability index was 2.51.

Q: For FSARYQQELEEEIKELYENFCKHN [F3A], which protein stability index is on record?
A: The protein stability index was 2.93.

Q: Which protein stability index does the source give for FSPRYQQELEEEIKELYENFCKHN [F3P] here?
A: The protein stability index was 3.79.

Q: For FSYRYQQELEEEIKELYENFCKHN [F3Y], which protein stability index is on record?
A: Its protein stability index is 2.01.

Q: Which protein stability index does the source give for FSLRYQQELEEEIKELYENFCKHN [F3L] here?
A: Its protein stability index is 2.7.

Q: With FSRRYQQELEEEIKELYENFCKHN [F3R] as the variant, how does the protein stability index read?
A: Its protein stability index is 2.83.

Q: With FSMRYQQELEEEIKELYENFCKHN [F3M] as the variant, how does the protein stability index read?
A: Its protein stability index is 2.96.

Q: Which protein stability index does the source give for FSQRYQQELEEEIKELYENFCKHN [F3Q] here?
A: Its protein stability index is 4.39.

Q: For FSERYQQELEEEIKELYENFCKHN [F3E], which protein stability index is on record?
A: Its protein stability index is 3.04.

Q: With FSWRYQQELEEEIKELYENFCKHN [F3W] as the variant, how does the protein stability index read?
A: Its protein stability index is 2.82.

Q: With FSNRYQQELEEEIKELYENFCKHN [F3N] as the variant, how does the protein stability index read?
A: Its protein stability index is 2.85.

Q: With FSIRYQQELEEEIKELYENFCKHN [F3I] as the variant, how does the protein stability index read?
A: The protein stability index was 2.52.

Q: Which protein stability index does the source give for FSKRYQQELEEEIKELYENFCKHN [F3K] here?
A: Its protein stability index is 2.09.

Q: Which protein stability index does the source give for FSFRYEQELEEEIKELYENFCKHN [Q6E] here?
A: Its protein stability index is 2.16.

Q: With FSFRYDQELEEEIKELYENFCKHN [Q6D] as the variant, how does the protein stability index read?
A: Its protein stability index is 2.35.

Q: Which protein stability index does the source give for FSFRYLQELEEEIKELYENFCKHN [Q6L] here?
A: Its protein stability index is 2.19.

Q: Which protein stability index does the source give for FSFRYYQELEEEIKELYENFCKHN [Q6Y] here?
A: Its protein stability index is 2.24.

Q: With FSFRYRQELEEEIKELYENFCKHN [Q6R] as the variant, how does the protein stability index read?
A: The protein stability index was 2.03.

Q: With FSFRYIQELEEEIKELYENFCKHN [Q6I] as the variant, how does the protein stability index read?
A: The protein stability index was 1.57.

Q: For FSFRYMQELEEEIKELYENFCKHN [Q6M], which protein stability index is on record?
A: The protein stability index was 2.08.

Q: Which protein stability index does the source give for FSFRYVQELEEEIKELYENFCKHN [Q6V] here?
A: Its protein stability index is 2.11.

Q: Which protein stability index does the source give for FSFRYHQELEEEIKELYENFCKHN [Q6H] here?
A: The protein stability index was 2.03.

Q: With FSFRYPQELEEEIKELYENFCKHN [Q6P] as the variant, how does the protein stability index read?
A: Its protein stability index is 2.09.

Q: With FSFRYAQELEEEIKELYENFCKHN [Q6A] as the variant, how does the protein stability index read?
A: Its protein stability index is 2.21.

Q: For FSFRYNQELEEEIKELYENFCKHN [Q6N], which protein stability index is on record?
A: Its protein stability index is 2.06.

Q: For FSFRYFQELEEEIKELYENFCKHN [Q6F], which protein stability index is on record?
A: The protein stability index was 2.1.

Q: For FSFRYWQELEEEIKELYENFCKHN [Q6W], which protein stability index is on record?
A: Its protein stability index is 1.51.

Q: For FSFRYTQELEEEIKELYENFCKHN [Q6T], which protein stability index is on record?
A: The protein stability index was 2.04.

Q: Which protein stability index does the source give for FSFRYSQELEEEIKELYENFCKHN [Q6S] here?
A: Its protein stability index is 2.

Q: For FSFRYGQELEEEIKELYENFCKHN [Q6G], which protein stability index is on record?
A: Its protein stability index is 2.67.

Q: For FSFRYKQELEEEIKELYENFCKHN [Q6K], which protein stability index is on record?
A: Its protein stability index is 2.26.

Q: Which protein stability index does the source give for FSFRYCQELEEEIKELYENFCKHN [Q6C] here?
A: The protein stability index was 2.38.

Q: Which protein stability index does the source give for FNFRYQQELEEEIKELYENFCKHN [S2N] here?
A: Its protein stability index is 2.37.

Q: Which protein stability index does the source give for FYFRYQQELEEEIKELYENFCKHN [S2Y] here?
A: The protein stability index was 2.73.

Q: For FRFRYQQELEEEIKELYENFCKHN [S2R], which protein stability index is on record?
A: Its protein stability index is 2.62.

Q: Which protein stability index does the source give for FKFRYQQELEEEIKELYENFCKHN [S2K] here?
A: The protein stability index was 2.58.

Q: Which protein stability index does the source give for FGFRYQQELEEEIKELYENFCKHN [S2G] here?
A: The protein stability index was 2.53.

Q: For FCFRYQQELEEEIKELYENFCKHN [S2C], which protein stability index is on record?
A: Its protein stability index is 3.27.

Q: Which protein stability index does the source give for FDFRYQQELEEEIKELYENFCKHN [S2D] here?
A: Its protein stability index is 2.93.

Q: Which protein stability index does the source give for FIFRYQQELEEEIKELYENFCKHN [S2I] here?
A: The protein stability index was 1.7.

Q: With FWFRYQQELEEEIKELYENFCKHN [S2W] as the variant, how does the protein stability index read?
A: The protein stability index was 1.8.

Q: Which protein stability index does the source give for FFFRYQQELEEEIKELYENFCKHN [S2F] here?
A: Its protein stability index is 1.75.

Q: For FEFRYQQELEEEIKELYENFCKHN [S2E], which protein stability index is on record?
A: The protein stability index was 2.52.

Q: With FPFRYQQELEEEIKELYENFCKHN [S2P] as the variant, how does the protein stability index read?
A: The protein stability index was 2.63.

Q: Which protein stability index does the source give for FLFRYQQELEEEIKELYENFCKHN [S2L] here?
A: The protein stability index was 1.85.

Q: Which protein stability index does the source give for FQFRYQQELEEEIKELYENFCKHN [S2Q] here?
A: The protein stability index was 2.6.

Q: Which protein stability index does the source give for FTFRYQQELEEEIKELYENFCKHN [S2T] here?
A: Its protein stability index is 2.36.

Q: With FMFRYQQELEEEIKELYENFCKHN [S2M] as the variant, how does the protein stability index read?
A: The protein stability index was 1.52.

Q: Which protein stability index does the source give for FVFRYQQELEEEIKELYENFCKHN [S2V] here?
A: The protein stability index was 1.65.

Q: For FHFRYQQELEEEIKELYENFCKHN [S2H], which protein stability index is on record?
A: Its protein stability index is 2.29.
